# According to patent US20040219131A1 (MAXYGEN, published 2004):
# Residue numbers refer to the chain shown, from its start.
# B1: B9x14 (ligand)
# chain: CDLPQTHSLGHRRTMMLLAQMRRISLFSCLKDRHDFRFPQEEFDGNHFQKVQAIFLFYEMMQQTFNLFSTKNSSAAWDETLLEKFYIELFQQMNDLEACVMQEVGVEETPLMNVDSILAVRKYFQRITLYLTEKKYSPCAWEVVRAEIMRSFSFSTNLQKRLRRKE
# B2: B9x11 (ligand)
# chain: B1 chain with E133K, A140S
# B3: B9x18 (ligand)
# chain: B1 chain with H47Q, V51T, F55S, L56V, Y58H
# B4: B9x15 (ligand)
# chain: B1 chain with H47Q, V51T, F55S, L56V, Y58H, E133K, A140S
# B5: B9x17 (ligand)
# chain: B1 chain with V51T, F55S, L56V, Y58H
# B6: B9x12 (ligand)
# chain: B1 chain with H47Q, E133K, A140S
# B7: B9x16 (ligand)
# chain: B1 chain with H47Q
# B8: B9x27 (ligand)
# chain: CDLPQTHSLSNRRTLMLMAQMRRISPFSCLKDRHDFGFPEEEFDGHQFQKVQAIFLLYELIQQTFNLFSTKNSSAAWDETLLEKFYIELFQQMNNLEACVIQEVGVEEIALMNVDSILAVRKYFRRITLYLTKKKYSPCSWEVVRAEIMRSFSFSTNLQKRLRRKE
# B9: B9x25 (ligand)
# chain: B8 chain with Q47H, K133E, S140A
# B10: B9x23 (ligand)
# chain: B8 chain with K133E, S140A
# B11: B9x26 (ligand)
# chain: B8 chain with Q47H, V51T, F55S, L56V, Y58H
# B12: B9x22 (ligand)
# chain: B8 chain with Q47H, V51T, F55S, L56V, Y58H, K133E, S140A
# B13: B9x24 (ligand)
# chain: B8 chain with V51T, F55S, L56V, Y58H
# B14: B9x21 (ligand)
# chain: B8 chain with V51T, F55S, L56V, Y58H, K133E, S140A
# B15: B9x28 (ligand)
# chain: B8 chain with Q47H
# B16: IFN-alpha Con1 (ligand)
# chain: CDLPQTHSLGNRRALILLAQMRRISPFSCLKDRHDFGFPQEEFDGNQFQKAQAISVLHEMIQQTFNLFSTKDSSAAWDESLLEKFYTELYQQLNDLEACVIQEVGVEETPLMNVDSILAVKKYFQRITLYLTEKKYSPCAWEVVRAEIMRSFSLSTNLQERLRRKE
# B17: 25Ep05 (ligand)
# chain: CDLPQTHSLSNRRTLMLMAQMRRISPFSCLKDRHDFGFPEEEFDGHQFQKTQAISVLHELIQQTFNLFSTKDSSAAWDETLLEKFYIELFQQMNDLEACVIQEVGVEEIALMNVDSILAVRKYFRRITLYLTEKKYSPCAWEVVRAEIMRSFSLSTNLQESLRSKE
# Target: T1, interferon-alpha receptor (human, UniProt P17181 28-557; P48551 27-515)
# T1 sequence (looked up) 1: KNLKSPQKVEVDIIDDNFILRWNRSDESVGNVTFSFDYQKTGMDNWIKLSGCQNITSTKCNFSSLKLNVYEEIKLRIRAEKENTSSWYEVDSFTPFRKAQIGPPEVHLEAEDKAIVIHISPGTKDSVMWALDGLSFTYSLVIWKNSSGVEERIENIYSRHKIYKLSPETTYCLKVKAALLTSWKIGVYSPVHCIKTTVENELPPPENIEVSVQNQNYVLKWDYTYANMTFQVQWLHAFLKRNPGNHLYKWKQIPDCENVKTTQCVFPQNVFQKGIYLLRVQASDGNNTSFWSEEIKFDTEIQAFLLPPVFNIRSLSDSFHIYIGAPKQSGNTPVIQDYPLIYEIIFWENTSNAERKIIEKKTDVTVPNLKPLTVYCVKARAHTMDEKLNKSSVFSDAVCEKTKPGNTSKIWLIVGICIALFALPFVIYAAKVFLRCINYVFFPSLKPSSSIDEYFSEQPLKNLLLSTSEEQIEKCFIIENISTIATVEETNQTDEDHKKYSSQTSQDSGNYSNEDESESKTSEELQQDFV
# T1 sequence (looked up) 2: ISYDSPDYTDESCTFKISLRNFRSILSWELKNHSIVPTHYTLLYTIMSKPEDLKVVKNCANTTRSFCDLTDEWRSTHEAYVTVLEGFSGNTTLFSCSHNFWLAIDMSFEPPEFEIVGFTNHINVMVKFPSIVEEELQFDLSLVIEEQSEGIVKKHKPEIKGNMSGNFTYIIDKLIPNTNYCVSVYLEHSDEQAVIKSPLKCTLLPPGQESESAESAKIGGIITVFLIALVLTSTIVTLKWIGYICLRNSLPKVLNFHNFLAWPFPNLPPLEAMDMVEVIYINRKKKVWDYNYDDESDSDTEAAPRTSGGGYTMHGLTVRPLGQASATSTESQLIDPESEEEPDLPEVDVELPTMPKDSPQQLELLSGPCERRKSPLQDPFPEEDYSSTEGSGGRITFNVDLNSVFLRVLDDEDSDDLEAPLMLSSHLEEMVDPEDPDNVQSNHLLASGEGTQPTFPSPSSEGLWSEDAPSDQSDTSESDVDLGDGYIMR
# Experiment: cell-based or functional assay
row,Binder,"Antiviral activity relative to huIFNα-2b (EC50 huIFN-alpha 2b/EC50 sample), EMCV/HuH-7 assay"
1,B1,≥ 10 fold relative to huIFNα-2b
2,B2,≥ 10 fold relative to huIFNα-2b
3,B3,≥ 10 fold relative to huIFNα-2b
4,B4,≥ 5 fold relative to huIFNα-2b
5,B5,≥ 10 fold relative to huIFNα-2b
6,B6,≥ 10 fold relative to huIFNα-2b
7,B7,≥ 10 fold relative to huIFNα-2b
8,B8,≥ 10 fold relative to huIFNα-2b
9,B9,≥ 10 fold relative to huIFNα-2b
10,B10,≥ 10 fold relative to huIFNα-2b
11,B11,≥ 5 fold relative to huIFNα-2b
12,B12,≥ 10 fold relative to huIFNα-2b
13,B13,≥ 5 fold relative to huIFNα-2b
14,B14,≥ 10 fold relative to huIFNα-2b
15,B15,≥ 10 fold relative to huIFNα-2b
16,B16,~2 fold relative to huIFNα-2b
17,B17,≥ 2.5 fold relative to huIFNα-2b

# Target: T1, interferon-alpha receptor
# Experiment: cell-based or functional assay
# Remark: another data set of the same source
row,Binder,"Antiproliferative activity relative to huIFNα-2b (EC50 huIFN-alpha 2b/EC50 sample), Daudi cell thymidine incorporation assay"
1,B1,≤ 0.5 fold relative to huIFNα-2b
2,B3,≤ 0.25 fold relative to huIFNα-2b
3,B4,≤ 0.25 fold relative to huIFNα-2b
4,B5,≤ 0.5 fold relative to huIFNα-2b
5,B7,≤ 0.25 fold relative to huIFNα-2b
6,B8,≤ 0.25 fold relative to huIFNα-2b
7,B9,≤ 0.5 fold relative to huIFNα-2b
8,B10,≤ 0.5 fold relative to huIFNα-2b
9,B11,≤ 0.25 fold relative to huIFNα-2b
10,B12,≤ 0.5 fold relative to huIFNα-2b
11,B13,≤ 0.25 fold relative to huIFNα-2b
12,B14,≤ 0.5 fold relative to huIFNα-2b
13,B16,~1.5 fold relative to huIFNα-2b
